# According to US20080175878:
# T1: blood clotting factor VII, P08709
# T1 chain: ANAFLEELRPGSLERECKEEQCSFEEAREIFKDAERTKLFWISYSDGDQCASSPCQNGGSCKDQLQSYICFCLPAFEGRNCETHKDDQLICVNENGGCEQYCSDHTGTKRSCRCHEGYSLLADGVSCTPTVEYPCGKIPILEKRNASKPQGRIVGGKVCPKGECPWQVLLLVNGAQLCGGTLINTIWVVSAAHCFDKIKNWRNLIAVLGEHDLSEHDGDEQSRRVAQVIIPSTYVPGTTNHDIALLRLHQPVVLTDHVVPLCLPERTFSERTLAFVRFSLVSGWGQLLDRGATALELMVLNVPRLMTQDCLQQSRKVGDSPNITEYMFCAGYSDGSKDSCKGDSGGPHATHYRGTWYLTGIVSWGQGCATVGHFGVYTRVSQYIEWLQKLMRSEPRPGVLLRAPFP
# B1: protease for activating the blood clotting factor VII (protein)
# chain 1: LLESLDPDWTPDQYDYSYEDYNQEENTSSTLTHAENPDWYYTEDQADPCQPNPCEHGGDCLVHGSTFTCSCLAPFSGNKCQKVQNTCKDNPCGRGQCLITQSPPYYRCVCKHPYTGPSCSQVVPVCRPNPCQNGATCSRHKRRSKFTCACPDQFKGKFCEIGSDDCYVGDGYSYRGKMNRTVNQHACLYWNSHLLLQENYNMFMEDAETHGIGEHNFCRNPDADEKPWCFIKVTNDKVKWEYCDVSACSAQDVAYPEESPTEPSTKLPGFDSCGKTEIAERKIKR
# chain 2: not shown
# What was measured:
# [1] = molecular target: single chain urokinase plasminogen activator, P00749
# [2] = molecular target: single chain tissue plasminogen activator, P00750
# [3] = molecular target: blood clotting factor VIII, P00451
# [4] = molecular target: T1, blood clotting factor VII, P08709
# [5] = molecular target: blood clotting factor V, P12259
# Sequence of blood clotting factor V, P12259 (P12259 29-2224): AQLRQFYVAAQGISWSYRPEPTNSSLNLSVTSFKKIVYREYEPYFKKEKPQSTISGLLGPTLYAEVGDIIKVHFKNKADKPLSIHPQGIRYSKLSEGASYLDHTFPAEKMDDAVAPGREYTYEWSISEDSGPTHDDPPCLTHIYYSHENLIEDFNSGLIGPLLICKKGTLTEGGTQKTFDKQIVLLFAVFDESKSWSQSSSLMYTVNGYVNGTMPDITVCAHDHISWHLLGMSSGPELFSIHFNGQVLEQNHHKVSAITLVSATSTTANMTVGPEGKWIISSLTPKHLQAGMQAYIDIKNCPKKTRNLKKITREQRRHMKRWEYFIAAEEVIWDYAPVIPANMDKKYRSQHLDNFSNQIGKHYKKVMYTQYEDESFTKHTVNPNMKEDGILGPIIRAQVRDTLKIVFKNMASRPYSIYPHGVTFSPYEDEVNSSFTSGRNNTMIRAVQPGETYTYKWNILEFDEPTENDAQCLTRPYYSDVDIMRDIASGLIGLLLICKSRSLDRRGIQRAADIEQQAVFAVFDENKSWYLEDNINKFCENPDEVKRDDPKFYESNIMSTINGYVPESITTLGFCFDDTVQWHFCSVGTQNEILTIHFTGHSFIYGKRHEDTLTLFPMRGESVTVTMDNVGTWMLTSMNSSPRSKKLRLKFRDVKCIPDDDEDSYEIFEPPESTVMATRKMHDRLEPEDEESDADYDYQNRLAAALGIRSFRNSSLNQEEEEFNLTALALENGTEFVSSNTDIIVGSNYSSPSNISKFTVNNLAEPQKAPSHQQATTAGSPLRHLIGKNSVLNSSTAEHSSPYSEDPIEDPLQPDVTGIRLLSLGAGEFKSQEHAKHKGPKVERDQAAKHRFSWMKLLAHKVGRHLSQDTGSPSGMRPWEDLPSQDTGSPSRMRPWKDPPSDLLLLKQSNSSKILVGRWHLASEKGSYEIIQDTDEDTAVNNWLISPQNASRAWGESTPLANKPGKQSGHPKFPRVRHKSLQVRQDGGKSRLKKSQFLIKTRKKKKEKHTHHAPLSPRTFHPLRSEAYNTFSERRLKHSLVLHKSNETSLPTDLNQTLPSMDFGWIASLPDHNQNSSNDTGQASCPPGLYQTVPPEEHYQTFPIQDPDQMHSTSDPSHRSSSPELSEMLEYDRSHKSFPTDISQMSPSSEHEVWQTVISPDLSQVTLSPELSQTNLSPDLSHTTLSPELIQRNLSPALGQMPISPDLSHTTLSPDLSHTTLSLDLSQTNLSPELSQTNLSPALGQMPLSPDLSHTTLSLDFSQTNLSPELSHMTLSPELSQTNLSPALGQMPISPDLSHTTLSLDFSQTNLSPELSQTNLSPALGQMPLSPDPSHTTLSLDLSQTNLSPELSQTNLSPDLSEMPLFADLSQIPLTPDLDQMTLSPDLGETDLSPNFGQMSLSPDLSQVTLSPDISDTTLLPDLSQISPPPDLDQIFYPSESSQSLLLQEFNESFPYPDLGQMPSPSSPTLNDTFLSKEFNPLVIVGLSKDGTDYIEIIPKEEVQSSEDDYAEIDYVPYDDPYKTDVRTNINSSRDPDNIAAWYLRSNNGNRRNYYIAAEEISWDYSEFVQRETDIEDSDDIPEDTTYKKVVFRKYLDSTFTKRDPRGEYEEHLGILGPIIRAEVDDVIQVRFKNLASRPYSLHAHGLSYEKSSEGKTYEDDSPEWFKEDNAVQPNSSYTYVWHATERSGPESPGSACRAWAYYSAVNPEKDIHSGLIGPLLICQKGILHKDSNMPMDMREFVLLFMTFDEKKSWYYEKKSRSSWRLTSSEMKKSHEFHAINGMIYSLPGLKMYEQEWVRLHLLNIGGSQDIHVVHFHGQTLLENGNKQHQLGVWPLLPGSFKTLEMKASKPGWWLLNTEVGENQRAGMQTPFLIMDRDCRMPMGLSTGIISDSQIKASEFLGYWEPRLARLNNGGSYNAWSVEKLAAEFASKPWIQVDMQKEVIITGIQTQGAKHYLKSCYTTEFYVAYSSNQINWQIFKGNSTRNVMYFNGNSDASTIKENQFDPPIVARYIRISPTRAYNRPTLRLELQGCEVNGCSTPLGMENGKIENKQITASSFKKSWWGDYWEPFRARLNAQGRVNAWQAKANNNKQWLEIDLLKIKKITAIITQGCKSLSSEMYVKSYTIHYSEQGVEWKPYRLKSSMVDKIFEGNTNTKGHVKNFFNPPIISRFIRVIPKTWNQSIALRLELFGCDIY
# Sequence of blood clotting factor VIII, P00451 (P00451 whole entry, looked up): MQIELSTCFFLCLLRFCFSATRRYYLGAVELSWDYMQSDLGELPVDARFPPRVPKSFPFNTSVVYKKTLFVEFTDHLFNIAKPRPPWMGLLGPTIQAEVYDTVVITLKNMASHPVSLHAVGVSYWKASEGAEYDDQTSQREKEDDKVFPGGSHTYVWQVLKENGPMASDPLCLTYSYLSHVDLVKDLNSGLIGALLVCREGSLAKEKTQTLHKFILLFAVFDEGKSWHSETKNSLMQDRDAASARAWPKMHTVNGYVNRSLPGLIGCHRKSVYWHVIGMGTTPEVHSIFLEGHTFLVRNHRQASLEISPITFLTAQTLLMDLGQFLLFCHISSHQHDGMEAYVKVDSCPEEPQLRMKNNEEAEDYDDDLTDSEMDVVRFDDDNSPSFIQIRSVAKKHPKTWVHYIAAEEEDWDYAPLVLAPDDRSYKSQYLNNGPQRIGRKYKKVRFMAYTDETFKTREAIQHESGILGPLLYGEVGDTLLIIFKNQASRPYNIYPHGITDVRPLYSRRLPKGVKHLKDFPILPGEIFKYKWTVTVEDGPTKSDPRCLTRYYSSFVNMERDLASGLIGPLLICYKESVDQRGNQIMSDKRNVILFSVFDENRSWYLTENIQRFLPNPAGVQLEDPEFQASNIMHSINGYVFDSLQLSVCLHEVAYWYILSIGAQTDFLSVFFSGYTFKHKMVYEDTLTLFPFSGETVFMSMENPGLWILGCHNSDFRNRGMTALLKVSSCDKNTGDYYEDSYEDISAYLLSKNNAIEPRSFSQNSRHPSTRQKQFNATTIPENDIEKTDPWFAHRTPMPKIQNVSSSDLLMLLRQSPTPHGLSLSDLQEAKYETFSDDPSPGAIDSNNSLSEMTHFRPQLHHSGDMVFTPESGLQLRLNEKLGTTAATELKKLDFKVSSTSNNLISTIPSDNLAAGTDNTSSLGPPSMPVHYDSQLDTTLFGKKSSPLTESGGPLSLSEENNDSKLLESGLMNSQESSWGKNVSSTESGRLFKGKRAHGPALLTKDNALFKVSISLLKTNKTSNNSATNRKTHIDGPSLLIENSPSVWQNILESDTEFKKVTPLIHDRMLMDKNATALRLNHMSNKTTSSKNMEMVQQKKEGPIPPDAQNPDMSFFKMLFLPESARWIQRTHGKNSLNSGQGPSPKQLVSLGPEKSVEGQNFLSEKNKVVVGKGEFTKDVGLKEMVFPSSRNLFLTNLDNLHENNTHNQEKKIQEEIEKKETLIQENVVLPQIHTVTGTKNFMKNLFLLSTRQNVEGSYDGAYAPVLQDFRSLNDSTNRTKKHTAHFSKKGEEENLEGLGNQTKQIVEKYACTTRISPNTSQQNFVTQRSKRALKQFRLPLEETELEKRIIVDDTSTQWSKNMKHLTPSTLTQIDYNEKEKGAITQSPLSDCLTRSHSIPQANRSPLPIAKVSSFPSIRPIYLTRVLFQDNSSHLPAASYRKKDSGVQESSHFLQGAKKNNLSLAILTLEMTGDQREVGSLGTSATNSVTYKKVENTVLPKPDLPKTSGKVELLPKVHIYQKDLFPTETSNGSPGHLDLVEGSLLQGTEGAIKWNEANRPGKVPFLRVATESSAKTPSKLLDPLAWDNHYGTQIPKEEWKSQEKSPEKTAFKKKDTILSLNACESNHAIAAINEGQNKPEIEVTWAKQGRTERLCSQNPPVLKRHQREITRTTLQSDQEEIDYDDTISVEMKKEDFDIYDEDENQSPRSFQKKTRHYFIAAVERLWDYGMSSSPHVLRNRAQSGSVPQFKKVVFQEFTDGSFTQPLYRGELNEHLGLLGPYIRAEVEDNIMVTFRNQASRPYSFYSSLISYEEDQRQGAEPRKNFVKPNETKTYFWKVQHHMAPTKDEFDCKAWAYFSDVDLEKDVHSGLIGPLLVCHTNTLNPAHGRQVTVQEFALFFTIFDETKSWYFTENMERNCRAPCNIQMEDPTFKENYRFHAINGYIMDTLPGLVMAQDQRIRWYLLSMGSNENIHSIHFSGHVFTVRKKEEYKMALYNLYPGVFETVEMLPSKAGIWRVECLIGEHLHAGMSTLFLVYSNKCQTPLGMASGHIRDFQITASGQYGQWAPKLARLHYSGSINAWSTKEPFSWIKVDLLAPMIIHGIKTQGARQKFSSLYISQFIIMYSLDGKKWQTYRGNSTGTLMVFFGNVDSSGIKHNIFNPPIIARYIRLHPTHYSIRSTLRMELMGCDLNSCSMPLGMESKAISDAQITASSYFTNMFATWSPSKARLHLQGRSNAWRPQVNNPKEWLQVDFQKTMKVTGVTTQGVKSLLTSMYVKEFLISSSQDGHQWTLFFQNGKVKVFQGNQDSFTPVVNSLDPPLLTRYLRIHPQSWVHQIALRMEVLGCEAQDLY
# Sequence of single chain tissue plasminogen activator, P00750 (P00750 36-562): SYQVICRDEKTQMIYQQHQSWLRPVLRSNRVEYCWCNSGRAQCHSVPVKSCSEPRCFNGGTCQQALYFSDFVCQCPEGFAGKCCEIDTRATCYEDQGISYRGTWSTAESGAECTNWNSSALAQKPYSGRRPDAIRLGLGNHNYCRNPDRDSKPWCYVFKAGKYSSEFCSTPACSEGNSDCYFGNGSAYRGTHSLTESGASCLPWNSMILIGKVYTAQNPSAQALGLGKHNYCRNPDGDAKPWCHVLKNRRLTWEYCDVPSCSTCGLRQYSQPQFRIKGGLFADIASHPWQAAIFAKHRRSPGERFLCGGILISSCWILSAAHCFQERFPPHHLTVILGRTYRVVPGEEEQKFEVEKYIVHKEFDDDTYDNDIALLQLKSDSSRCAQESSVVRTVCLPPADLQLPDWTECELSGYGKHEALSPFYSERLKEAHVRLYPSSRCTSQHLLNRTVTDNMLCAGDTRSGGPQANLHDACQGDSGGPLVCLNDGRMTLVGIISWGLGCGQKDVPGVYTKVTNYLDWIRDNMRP
protein,measurement,setting,value
B1,"Resulting PA activity (S-2444), no stimulant, 2 min, FVII activator 2 µg/ml",[1],25 Δ mIU/min
same,"Resulting PA activity (S-2444), no stimulant, 2 min, FVII activator 5 µg/ml",[1],60 Δ mIU/min
same,"Resulting PA activity (S-2444), no stimulant, 2 min, FVII activator 10 µg/ml",[1],117 Δ mIU/min
same,"Resulting PA activity (S-2444), no stimulant, 5 min, FVII activator 2 µg/ml",[1],79 Δ mIU/min
same,"Resulting PA activity (S-2444), no stimulant, 5 min, FVII activator 5 µg/ml",[1],179 Δ mIU/min
same,"Resulting PA activity (S-2444), no stimulant, 5 min, FVII activator 10 µg/ml",[1],165 Δ mIU/min
same,"Resulting PA activity (S-2444), no stimulant, 10 min, FVII activator 2 µg/ml",[1],186 Δ mIU/min
same,"Resulting PA activity (S-2444), no stimulant, 10 min, FVII activator 5 µg/ml",[1],449 Δ mIU/min
same,"Resulting PA activity (S-2444), no stimulant, 10 min, FVII activator 10 µg/ml",[1],517 Δ mIU/min
same,"Resulting PA activity (S-2444), stimulant CaCl2, 2 min, FVII activator 2 µg/ml",[1],255 Δ mIU/min
same,"Resulting PA activity (S-2444), stimulant CaCl2, 2 min, FVII activator 5 µg/ml",[1],370 Δ mIU/min
same,"Resulting PA activity (S-2444), stimulant CaCl2, 2 min, FVII activator 10 µg/ml",[1],401 Δ mIU/min
same,"Resulting PA activity (S-2444), stimulant CaCl2, 5 min, FVII activator 2 µg/ml",[1],338 Δ mIU/min
same,"Resulting PA activity (S-2444), stimulant CaCl2, 5 min, FVII activator 5 µg/ml",[1],424 Δ mIU/min
same,"Resulting PA activity (S-2444), stimulant CaCl2, 5 min, FVII activator 10 µg/ml",[1],438 Δ mIU/min
same,"Resulting PA activity (S-2444), stimulant CaCl2, 10 min, FVII activator 2 µg/ml",[1],416 Δ mIU/min
same,"Resulting PA activity (S-2444), stimulant CaCl2, 10 min, FVII activator 5 µg/ml",[1],445 Δ mIU/min
same,"Resulting PA activity (S-2444), stimulant CaCl2, 10 min, FVII activator 10 µg/ml",[1],448 Δ mIU/min
same,"Resulting PA activity (S-2444), stimulant heparin, 2 min, FVII activator 2 µg/ml",[1],190 Δ mIU/min
same,"Resulting PA activity (S-2444), stimulant heparin, 2 min, FVII activator 5 µg/ml",[1],332 Δ mIU/min
same,"Resulting PA activity (S-2444), stimulant heparin, 2 min, FVII activator 10 µg/ml",[1],425 Δ mIU/min
same,"Resulting PA activity (S-2444), stimulant heparin, 5 min, FVII activator 2 µg/ml",[1],330 Δ mIU/min
same,"Resulting PA activity (S-2444), stimulant heparin, 5 min, FVII activator 5 µg/ml",[1],455 Δ mIU/min
same,"Resulting PA activity (S-2444), stimulant heparin, 5 min, FVII activator 10 µg/ml",[1],458 Δ mIU/min
same,"Resulting PA activity (S-2444), stimulant heparin, 10 min, FVII activator 2 µg/ml",[1],417 Δ mIU/min
same,"Resulting PA activity (S-2444), stimulant heparin, 10 min, FVII activator 5 µg/ml",[1],462 Δ mIU/min
same,"Resulting PA activity (S-2444), stimulant heparin, 10 min, FVII activator 10 µg/ml",[1],460 Δ mIU/min
same,"PA activity (S-2444), 20 min at 37° C., heparin 100 IU/ml, FVII activator 50 µg/ml",[2],33.6 Δ mIU/min
same,"PA activity (S-2444), 20 min at 37° C., heparin 100 IU/ml, FVII activator 100 µg/ml",[2],51 Δ mIU/min
same,"PA activity (S-2444), 20 min at 37° C., heparin 100 IU/ml, FVII activator 200 µg/ml",[2],71.9 Δ mIU/min
same,"PA activity (S-2444), 20 min at 37° C., stimulant: CaCl2",[2],25.3 Δ mIU/min
same,"PA activity (S-2444), 20 min at 37° C., stimulant: heparin",[2],63.8 Δ mIU/min
same,"PA activity (S-2444), 20 min at 37° C., stimulant: none",[2],5.9 Δ mIU/min
same,"Resulting PA activity (S-2444), sctPA 100 µg/ml, incubation 1 min (FVII activator concentration not given)",[2],10.2 Δ mIU/min
same,"Resulting PA activity (S-2444), sctPA 100 µg/ml, incubation 2 min (FVII activator concentration not given)",[2],16.8 Δ mIU/min
same,"Resulting PA activity (S-2444), sctPA 100 µg/ml, incubation 5 min (FVII activator concentration not given)",[2],38.8 Δ mIU/min
same,"Resulting PA activity (S-2444), sctPA 100 µg/ml, incubation 10 min (FVII activator concentration not given)",[2],60.2 Δ mIU/min
same,"Resulting PA activity (S-2444), sctPA 100 µg/ml, incubation 20 min (FVII activator concentration not given)",[2],73.3 Δ mIU/min
same,"FVIII activity (% of control without protease), FVIII essentially free of vWF, protease 10 µg/ml, CaCl2, 0 min",[3],97%
same,"FVIII activity (% of control without protease), FVIII essentially free of vWF, protease 10 µg/ml, CaCl2, 5 min",[3],27%
same,"FVIII activity (% of control without protease), FVIII essentially free of vWF, protease 10 µg/ml, CaCl2, 10 min",[3],11%
same,"FVIII activity (% of control without protease), FVIII essentially free of vWF, protease 10 µg/ml, CaCl2, 20 min",[3],< 1%
same,"FVIII activity (% of control without protease), FVIII solution containing vWF, protease 10 µg/ml, CaCl2, 0 min",[3],98%
same,"FVIII activity (% of control without protease), FVIII solution containing vWF, protease 10 µg/ml, CaCl2, 5 min",[3],16%
same,"FVIII activity (% of control without protease), FVIII solution containing vWF, protease 10 µg/ml, CaCl2, 10 min",[3],14%
same,"FVIII activity (% of control without protease), FVIII solution containing vWF, protease 10 µg/ml, CaCl2, 20 min",[3],1%
same,"residual active FVIII (chromogenic FVIII test), 10 min, protease 0.1, 1 and 10 µg/ml",[3],"As the protease concentration increased, correspondingly more FVIII was inactivated"
same,"residual active FVIII (chromogenic FVIII test), protease 10 µg/ml, incubation time varied",[3],A marked reduction in the residual concentration of active FVIII was seen as the length of incubation increased
same,share of FVIII spared from the protease at calcium below 0.5 mM,[3],the percentage spared is more than 60%
same,share of FVIII spared from the protease at calcium below 1 mM,[3],approx. 50% of the FVIII is then spared
same,"FVII activation factor (x control), protease solution diluted 1:5, 5 min at RT (x times control)",[4],2.6
same,"FVII activation factor (x control), protease solution diluted 1:10, 5 min at RT (x times control)",[4],2
same,"FVII activation factor (x control), protease solution diluted 1:20, 5 min at RT (x times control)",[4],1.6
same,"FVII activation factor, 0.2 IU FVII/ml + 1:10 protease solution, incubation 0 min (x times control)",[4],1
same,"FVII activation factor, 0.2 IU FVII/ml + 1:10 protease solution, incubation 2.5 min (x times control)",[4],1.3
same,"FVII activation factor, 0.2 IU FVII/ml + 1:10 protease solution, incubation 5.0 min (x times control)",[4],2
same,"FVII activation factor, 0.2 IU FVII/ml + 1:10 protease solution, incubation 10.0 min (x times control)",[4],2.8
same,"FVII activation factor, 0.2 IU FVII/ml + 1:10 protease solution, incubation 40.0 min (x times control)",[4],< 3.8
same,"FVIIa content (Staclot FVIIa-rTF test) after protease + FVII, 10 min, then aprotinin",[4],18 mlU of FVIIa/ml
same,"FVIIa formed by the action of the protease, after subtracting the base value",[4],8 mlU of FVIIa/ml have therefore been formed by the action of the protease
same,"Residual FV activity, protease 10 µg/ml, incubation 20 min",[5],100
same,"Residual FV activity, protease 10 µg/ml, incubation column headed 0 (min)",[5],93
same,"Residual FV activity, protease 10 µg/ml, incubation column headed 0 (min), second column",[5],91
same,"Residual FV activity, protease 30 µg/ml, incubation 20 min",[5],28
same,"Residual FV activity, protease 30 µg/ml, incubation column headed 0 (min)",[5],100
same,"Residual FV activity, protease 30 µg/ml, incubation column headed 0 (min), second column",[5],93
same,"Residual FV activity, protease 100 µg/ml, incubation 20 min",[5],13
same,"Residual FV activity, protease 100 µg/ml, incubation column headed 0 (min)",[5],100
same,"Residual FV activity, protease 100 µg/ml, incubation column headed 0 (min), second column",[5],29
